The source of these data is patent publication US20110003315A1.

In this experiment the target is mouse VLDLR (skeletal muscle) (mouse) (UniProt P98156). Kind of experiment: cell-based or functional assay.
Sequence of mouse VLDLR (skeletal muscle) (mouse) (P98156 28-873): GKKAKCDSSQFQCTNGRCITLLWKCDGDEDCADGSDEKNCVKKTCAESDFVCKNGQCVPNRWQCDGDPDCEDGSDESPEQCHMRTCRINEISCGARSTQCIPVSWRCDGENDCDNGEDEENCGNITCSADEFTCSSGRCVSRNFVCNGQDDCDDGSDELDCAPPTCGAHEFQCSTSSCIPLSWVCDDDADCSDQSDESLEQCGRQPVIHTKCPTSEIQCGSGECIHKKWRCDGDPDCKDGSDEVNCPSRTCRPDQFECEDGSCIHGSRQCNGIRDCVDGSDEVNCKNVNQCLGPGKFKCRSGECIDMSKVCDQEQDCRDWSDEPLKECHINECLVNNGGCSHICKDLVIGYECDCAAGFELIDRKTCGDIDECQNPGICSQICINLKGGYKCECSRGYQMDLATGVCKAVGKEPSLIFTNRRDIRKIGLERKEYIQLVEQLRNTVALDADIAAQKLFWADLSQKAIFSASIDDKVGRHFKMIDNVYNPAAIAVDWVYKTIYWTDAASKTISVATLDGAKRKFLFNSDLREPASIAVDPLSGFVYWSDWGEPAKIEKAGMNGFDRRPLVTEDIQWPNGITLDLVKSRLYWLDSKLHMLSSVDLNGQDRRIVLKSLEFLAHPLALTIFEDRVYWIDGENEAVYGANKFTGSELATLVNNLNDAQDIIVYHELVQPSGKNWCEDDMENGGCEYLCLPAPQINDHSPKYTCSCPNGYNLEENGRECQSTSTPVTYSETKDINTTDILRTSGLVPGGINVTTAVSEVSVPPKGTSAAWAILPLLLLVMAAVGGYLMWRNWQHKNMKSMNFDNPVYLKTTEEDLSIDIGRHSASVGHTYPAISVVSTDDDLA

For “wild type human PCSK9 with C-terminal V5 tag (from UniProt Q8NBP7 31-692) (enzyme)”, the level of VLDLR in muscle of transgenic mice against non-transgenic control littermates is < 3 fold.
